This is an account of results in patent EP4700044A1, “PROTEIN ANALOGUE AND USE THEREOF” (Shanghai Duomirui Biotechnology., Ltd., priority 2023, dated 2024).

The labels stand for the following.
B1: Compound 5.4: FGF21K122C mutant (SEQ NO: 8) modified by the albumin-binding agent of Example 2.1 (conjugate)
chain: HPIPDSSPLLQFGGQVRQRYLYTDDAQQTEAHLEIREDGTVGGAADQSPESLLQLKALKPGVIQILGVKTSRFLCQRPDGALYGSLHFDPEACSFRERLLEDGYNVYQSEAHGLPLHLPGNCSPHRDPAPRGPARFLPLPGLPPAPPEPPGILAPQPPDVGSSDPLSMVGGSQGRSPSYES
modifications: albumin-binding agent of Example 2.1
B2: Compound 5.2: FGF21D38C mutant (SEQ NO: 6) modified by the albumin-binding agent of Example 2.1 (conjugate)
chain: B1 chain with D38C, C122K
modifications: albumin-binding agent of Example 2.1
B3: Compound 5.14: FGF21K122C mutant (SEQ NO: 8) modified by the albumin-binding agent of Example 2.4 (conjugate)
chain: B1 chain
modifications: albumin-binding agent of Example 2.4
B4: Compound 5.12: FGF21H125C mutant (SEQ NO: 9) modified by the albumin-binding agent of Example 2.3 (conjugate)
chain: B1 chain with C122K, H125C
modifications: albumin-binding agent of Example 2.3
B5: Compound 5.11: FGF21K122C mutant (SEQ NO: 8) modified by the albumin-binding agent of Example 2.3 (conjugate)
chain: B1 chain
modifications: albumin-binding agent of Example 2.3
B6: Compound 5.13: FGF21D46C mutant (SEQ NO: 7) modified by the albumin-binding agent of Example 2.4 (conjugate)
chain: B1 chain with D46C, C122K
modifications: albumin-binding agent of Example 2.4
B7: Compound 5.10: FGF21D46C mutant (SEQ NO: 7) modified by the albumin-binding agent of Example 2.3 (conjugate)
chain: B1 chain with D46C, C122K
modifications: albumin-binding agent of Example 2.3
B8: Compound 5.8: FGF21K122C mutant (SEQ NO: 8) modified by the albumin-binding agent of Example 2.2 (conjugate)
chain: B1 chain
modifications: albumin-binding agent conjugated
B9: Compound 5.9: FGF21H125C mutant (SEQ NO: 9) modified by the albumin-binding agent of Example 2.2 (conjugate)
chain: B1 chain with C122K, H125C
modifications: albumin-binding agent conjugated
B10: Compound 5.1: FGF21E30C mutant (SEQ NO: 5) modified by the albumin-binding agent of Example 2.1 (conjugate)
chain: B1 chain with E30C, C122K
modifications: albumin-binding agent of Example 2.1
B11: Compound 5.5: FGF21H125C mutant (SEQ NO: 9) modified by the albumin-binding agent of Example 2.1 (conjugate)
chain: B1 chain with C122K, H125C
modifications: albumin-binding agent of Example 2.1
B12: Compound 5.6: FGF21D38C mutant (SEQ NO: 6) modified by the albumin-binding agent of Example 2.2 (conjugate)
chain: B1 chain with D38C, C122K
modifications: albumin-binding agent conjugated
B13: Compound 5.3: FGF21D46C mutant (SEQ NO: 7) modified by the albumin-binding agent of Example 2.1 (conjugate)
chain: B1 chain with D46C, C122K
modifications: albumin-binding agent of Example 2.1
B14: Compound 10.3: PAS-FGF21 dimer: PAS50FGF21 (SEQ ID NO: 15) modified by the side chain of Example 8.3 (conjugate)
chain: SPCASPAAPAPASPAAPAPSAPAAASAAAPAAASAAASAPSAASAAASPAAHPIPDSSPLLQFGGQVRQRYLYTDDAQQTEAHLEIREDGTVGGAADQSPESLLQLKALKPGVIQILGVKTSRFLCQRPDGALYGSLHFDPEACSFRERLLEDGYNVYQSEAHGLPLHLPGNKSPHRDPAPRGPARFLPLPGLPPAPPEPPGILAPQPPDVGSSDPLSMVGGSQGRSPSYES
modifications: dimer; side chain of Example 8.3
B15: Compound 10.5: PAS-FGF21 dimer: PAS200FGF21 (SEQ ID NO: 17) modified by the side chain of Example 8.3 (conjugate)
chain: SPCASPAAPAPASPAAPAPSAPAAASAAAPAAASAAASAPSAASAAASPAAPSAPPAAASPAAPSAPPAAASPAAPAPASPAASAPSAPAAASPAAPAPASPAAPAPSAPAAASAAAPAAASAAASAPSASAAASAAAPAAASAAASAPSAASSAASPAAPSAPPAAASPAAPSAPPAAASPAAPAPASPAAPAPSAPAAAHPIPDSSPLLQFGGQVRQRYLYTDDAQQTEAHLEIREDGTVGGAADQSPESLLQLKALKPGVIQILGVKTSRFLCQRPDGALYGSLHFDPEACSFRERLLEDGYNVYQSEAHGLPLHLPGNKSPHRDPAPRGPARFLPLPGLPPAPPEPPGILAPQPPDVGSSDPLSMVGGSQGRSPSYES
modifications: dimer; side chain of Example 8.3
B16: Compound 10.2: PAS-FGF21 dimer: PAS30FGF21 (SEQ ID NO: 14) modified by the side chain of Example 8.3 (conjugate)
chain: SPCASPAAPAPASPAAPAPSAPAAASAAAPAHPIPDSSPLLQFGGQVRQRYLYTDDAQQTEAHLEIREDGTVGGAADQSPESLLQLKALKPGVIQILGVKTSRFLCQRPDGALYGSLHFDPEACSFRERLLEDGYNVYQSEAHGLPLHLPGNKSPHRDPAPRGPARFLPLPGLPPAPPEPPGILAPQPPDVGSSDPLSMVGGSQGRSPSYES
modifications: dimer; side chain of Example 8.3
B17: Compound 10.4: PAS-FGF21 dimer: PAS100FGF21 (SEQ ID NO: 16) modified by the side chain of Example 8.3 (conjugate)
chain: SPCASPAAPAPASPAAPAPSAPAAASAAAPAAASAAASAPSAASAAASPAAPSAPPAAASPAAPSAPPAAASPAAPAPASPAASAPSAPAAASPAAPAPASHPIPDSSPLLQFGGQVRQRYLYTDDAQQTEAHLEIREDGTVGGAADQSPESLLQLKALKPGVIQILGVKTSRFLCQRPDGALYGSLHFDPEACSFRERLLEDGYNVYQSEAHGLPLHLPGNKSPHRDPAPRGPARFLPLPGLPPAPPEPPGILAPQPPDVGSSDPLSMVGGSQGRSPSYES
modifications: dimer; side chain of Example 8.3
B18: Compound 10.1: PAS-FGF21 dimer: PAS15FGF21 (SEQ ID NO: 13) modified by the side chain of Example 8.3 (conjugate)
chain: SPCASPAAPAPASPAAHPIPDSSPLLQFGGQVRQRYLYTDDAQQTEAHLEIREDGTVGGAADQSPESLLQLKALKPGVIQILGVKTSRFLCQRPDGALYGSLHFDPEACSFRERLLEDGYNVYQSEAHGLPLHLPGNKSPHRDPAPRGPARFLPLPGLPPAPPEPPGILAPQPPDVGSSDPLSMVGGSQGRSPSYES
modifications: dimer; side chain of Example 8.3

Where a chain is given by its changes, count along the chain named.

One experiment deals with T1, FGFR1c and the cofactor β-Klotho (Homo sapiens, UniProt P11362+Q86Z14).
T1 construct: host or cells: iLite FGF21 assay ready cells (genetically engineered reporter gene cell line)
T1 sequence (P11362 22-822): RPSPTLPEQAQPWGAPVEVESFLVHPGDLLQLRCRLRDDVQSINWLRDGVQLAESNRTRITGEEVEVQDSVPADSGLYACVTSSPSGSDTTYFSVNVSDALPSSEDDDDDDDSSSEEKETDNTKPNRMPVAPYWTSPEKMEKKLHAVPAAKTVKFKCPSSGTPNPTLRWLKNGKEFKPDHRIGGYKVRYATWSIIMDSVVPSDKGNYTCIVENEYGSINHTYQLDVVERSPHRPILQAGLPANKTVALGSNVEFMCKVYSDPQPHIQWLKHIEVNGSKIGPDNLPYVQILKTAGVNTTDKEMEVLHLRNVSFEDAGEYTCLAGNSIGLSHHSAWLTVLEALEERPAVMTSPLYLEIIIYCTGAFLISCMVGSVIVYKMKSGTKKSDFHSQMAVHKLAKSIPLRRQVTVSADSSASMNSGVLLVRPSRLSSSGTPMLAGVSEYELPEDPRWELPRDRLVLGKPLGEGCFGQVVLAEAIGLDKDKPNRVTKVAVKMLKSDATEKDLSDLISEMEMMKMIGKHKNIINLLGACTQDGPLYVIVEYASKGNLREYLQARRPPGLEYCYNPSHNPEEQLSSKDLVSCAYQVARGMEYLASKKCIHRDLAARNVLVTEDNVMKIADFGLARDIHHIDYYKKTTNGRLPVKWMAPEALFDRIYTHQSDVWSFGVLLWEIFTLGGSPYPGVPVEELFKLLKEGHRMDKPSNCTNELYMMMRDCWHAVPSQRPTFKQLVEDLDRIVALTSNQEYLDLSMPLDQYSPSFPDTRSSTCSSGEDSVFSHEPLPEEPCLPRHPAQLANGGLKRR
T1 sequence (Q86Z14 whole entry): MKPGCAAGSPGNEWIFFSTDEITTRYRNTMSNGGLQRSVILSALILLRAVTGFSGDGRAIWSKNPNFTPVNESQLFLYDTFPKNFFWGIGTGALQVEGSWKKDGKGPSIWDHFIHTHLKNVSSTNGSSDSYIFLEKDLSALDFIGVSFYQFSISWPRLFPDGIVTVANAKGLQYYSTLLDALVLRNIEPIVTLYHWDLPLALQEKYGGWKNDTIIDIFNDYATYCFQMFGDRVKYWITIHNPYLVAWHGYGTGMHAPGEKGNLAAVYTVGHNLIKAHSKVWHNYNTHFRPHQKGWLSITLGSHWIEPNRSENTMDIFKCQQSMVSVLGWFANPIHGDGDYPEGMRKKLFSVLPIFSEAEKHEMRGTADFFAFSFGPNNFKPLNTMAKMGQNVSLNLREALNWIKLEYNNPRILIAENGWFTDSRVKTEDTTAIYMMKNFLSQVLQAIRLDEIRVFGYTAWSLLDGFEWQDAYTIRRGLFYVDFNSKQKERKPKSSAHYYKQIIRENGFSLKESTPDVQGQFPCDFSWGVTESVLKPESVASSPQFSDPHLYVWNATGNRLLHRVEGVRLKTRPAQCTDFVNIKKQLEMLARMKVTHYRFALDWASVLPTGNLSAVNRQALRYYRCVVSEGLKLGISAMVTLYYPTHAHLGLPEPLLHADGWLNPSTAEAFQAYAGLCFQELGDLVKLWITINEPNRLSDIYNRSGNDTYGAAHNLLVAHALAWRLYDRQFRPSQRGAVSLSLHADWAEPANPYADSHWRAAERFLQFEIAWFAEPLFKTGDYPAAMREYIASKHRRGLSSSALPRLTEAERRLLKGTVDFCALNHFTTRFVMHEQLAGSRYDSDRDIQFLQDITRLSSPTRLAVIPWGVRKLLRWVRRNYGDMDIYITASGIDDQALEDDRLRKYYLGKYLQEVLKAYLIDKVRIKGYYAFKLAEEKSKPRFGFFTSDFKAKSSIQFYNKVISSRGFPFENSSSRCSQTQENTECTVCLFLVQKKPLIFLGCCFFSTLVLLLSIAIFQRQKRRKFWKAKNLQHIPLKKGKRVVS
Put plainly: dual-luciferase reporter gene assay in iLite FGF21 assay ready cells. Format: cell-based. The following applies: Example 6, four-parameter fitting. An excerpt:
iLite FGF21 assay ready cells (purchased from SAVR) is a genetically engineered reporter gene cell line that responds to signals downstream to FGF21 agonism through the expression of firefly luciferase. The receptor FGFR1c and the cofactor β-Klotho were co-overexpressed on the surface of iLite FGF21 assay ready cells and have undergone genetic optimization to enhance sensitivity, such that FGF21 will cause an increase in luciferase expression in a dose-response manner. The luciferase activity detection kit was purchased from Promega (catalog number #E2980).
iLite FGF21 assay ready cells were cultured adherently in basal medium (DMEM Gluta Max, purchased from Gibco) containing 10% fetal bovine serum (FBS, purchased from Gibco) and 1% penicillin/streptomycin (purchased from Gibco). For the activity determination experiment, […] cells per well and test samples such as FGF21 mutant proteins and FGF21 conjugate molecules modified with albumin-binding agent were added to all-white 96-well culture plates (purchased from Corning), and the chemiluminescence values were detected in a microplate reader according to the instructions of the luciferase activity detection kit. Finally, the half-maximal effective concentration (EC50) values of the tested samples were obtained by means of four-parameter fitting.
B1 registered an EC50 of 0.99 nM.

The molecule B2 showed an EC50 of 1.99 nM.

B3 had an EC50 of 1.02 nM.

For the molecule B4, a half-maximal response (EC50) required 1.4 nM. The EC50 values of the last two molecules are within 1.5-fold of each other.

For B5, the EC50 is 2.09 nM. The EC50 values of the last two molecules are within 1.5-fold of each other.

Regarding B6, the EC50 was 1.84 nM.

In turn, B7 came in with an EC50 of 2.69 nM.

Molecule B8 showed a concentration giving a half-maximal response (EC50) of 1.13 nM.

Molecule B9 gave an EC50 of 1.18 nM.

Take B10: the EC50 was 4.61 nM. This EC50 lies about 3.9-fold higher than the previous one.

With B11, the response was half-maximal at 0.52 nM (EC50).

B12 yielded a concentration for a half-maximal effect (EC50) of 2.06 nM.

Turning to B13, a half-maximal effect (EC50) was put at 0.24 nM.

The same experiment, now with this note: Example 11, four-parameter fitting.
B14 returned an EC50 of 0.02 nM. That is a picomolar value.

B15 showed an EC50 of 0.15 nM.

Consider B16, for which the EC50 stood at 0.04 nM.

As to B17, a half-maximal response (EC50) required 0.13 nM. This EC50 lies about 3.2-fold higher than the previous one.

Turning to B18, the response was half-maximal at 0.07 nM (EC50). Compared with the last molecule, the EC50 is about 1.9-fold lower.
